Experimental data: publication PMC9712074 (Cell Reports, 2022)

B1: BD55-3152 (antibody, V domains shown)
VH: QVQLVQSGAEVKKPGASVIVSCKASGYRFISHYIHWVRQAPGQGLEWMGKIDPSGRGTTYAQKLQGRVSVTRDTSTSSVYMALSGLRSDDTAVYYCARDRFPLSDPYVWGSPLGGLDVWGQGTTVIVSS
VL: SYDLTQPPSVSVSPGQTARITCSGDALPSQYVYWYQQRPGQAPVLVMYKDSERPPGIPERFSGSTSGTTATLTITGVQAEDEADYYCQSADASTTYHVFGGGTKVTVV
B2: BD55-3372 (antibody, V domains shown)
VH: EVHLVESGGGLVKPGGSLRLSCAASGFTFSNYAMNWVRQAPGKGLQWVSSITGSSSFIFYADSVKGRFTIVRDNAQNSLYLQMNSLRDEDTAVYYCARERDDYDTRLDWGQGTLVTVSS
VL: QPMLTQPPSVSGAPGQTVTISCVGSSSNIGAGYEVHWYQQLPGTAPKRLLSGNSDRPSGVPDRFSGSKSGTSASLAITGLQADDEADYYCQSYDSSLSLSAVVFGGGTKLTVL

Molecular target: SARS-CoV-2 Omicron BA.1 RBD (SARS-CoV-2 Omicron BA.1, strain)

Binder | binding result
B1 | binds
B2 | binds
